Data published in patent publication US20150299328A1.

Molecular target: HIR extracellular domain (ECD) (human) (UniProt P06213)
Test: ELISA, HIR ECD plated

Work on “CHO-derived HIRMAb-IDUA fusion protein (antibody)” yielded an EC50 of 0.75 nM.
